Measured values reported in patent publication US20160195533.

Columns and labels:
[1] = molecular target: Flag-tagged Snail1 (pCMV-Tag2B N-terminal Flag-tagged Snail1 expression vector, Addgene)
[2] = molecular target: Strep-tagged Snail1 (pEXPR-IBA105-Snail1)
[3] = molecular target: Snail1, endogenous protein of A549, HCC44, HEK293T or H1299 cells
Sequence of Snail1, endogenous protein of A549, HCC44, HEK293T or H1299 cells (chain, as listed by the source): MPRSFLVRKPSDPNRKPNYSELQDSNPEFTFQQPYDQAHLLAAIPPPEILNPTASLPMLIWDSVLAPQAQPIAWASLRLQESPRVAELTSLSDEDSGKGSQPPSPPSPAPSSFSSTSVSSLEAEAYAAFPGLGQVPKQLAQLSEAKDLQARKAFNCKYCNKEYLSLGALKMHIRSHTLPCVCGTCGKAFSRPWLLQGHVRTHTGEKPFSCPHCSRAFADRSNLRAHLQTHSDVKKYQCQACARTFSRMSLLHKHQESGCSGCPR

Sequence of Flag-tagged Snail1 (pCMV-Tag2B N-terminal Flag-tagged Snail1 expression vector, Addgene) (chain, as listed by the source): as above
Sequence of Strep-tagged Snail1 (pEXPR-IBA105-Snail1) (chain, as listed by the source): as above

B1: Strep-tagged ERS-WHEP domain of EPRS (pEXPR-IBA105-ERS) (protein)
chain: MATLSLTVNSGDPPLGALLAVEHVKDDVSISVEEGKENILHVSENVIFTDVNSILRYLARVATTAGLYGSNLMEHTEIDHWLEFSATKLSSCDSFTSTINELNHCLSLRTYLVGNSLSLADLCVWATLKGNAAWQEQLKQKKAPVHVKRWFGFLEAQQAFQSVGTKWDVSTTKARVAPEKKQDVGKFVELPGAEMGKVTVRFPPEASGYLHIGHAKAALLNQHYQVNFKGKLIMRFDDTNPEKEKEDFEKVILEDVAMLHIKPDQFTYTSDHFETIMKYAEKLIQEGKAYVDDTPAEQMKAEREQRIDSKHRKNPIEKNLQMWEEMKKGSQFGQSCCLRAKIDMSSNNGCMRDPTLYRCKIQPHPRTGNKYNVYPTYDFACPIVDSIEGVTHALRTTEYHDRDEQFYWIIEALGIRKPYIWEYSRLNLNNTVLSKRKLTWFVNEGLVDGWDDPRFPTVRGVLRRGMTVEGLKQFIAAQGSSRSVVNMEWDKIWAFNKKVIDPVAPRYVALLKKEVIPVNVPEAQEEMKEVAKHPKNPEVGLKPVWYSPKVFIEGADAETFSEGEMVTFINWGNLNITKIHKNADGKIISLDAKLNLENKDYKKTTKVTWLAETTHALPIPVICVTYEHLITKPVLGKDEDFKQYVNKNSKHEELMLGDPCLKDLKKGDIIQLQRRGFFICDQPYEPVSPYSCKEAPCVLIYIPDGHTKEMPTSGSKEKTKVEATKNETSAPFKERPTPSLNNNCTTSEDSLVLYNRVAVQGDVVRELKAKKAPKEDVDAAVKQLLSLKAEYKEKTGQEYKPGNPPAEIGQNISSNSSASILESKSLYDEVAAQGEVVRKLKAEKSPKAKINEAVECLLSLKAQYKEKTGKEYIPGQPPLSQSSDSSPTRNSEPAGLETPEAKVLFDKVASQGEVVRKLKTEKAPKDQVDIAVQELLQLKAQYKSLIGVEYKPVSATGAEDKDKKKKEKENKSEKQNKPQKQNDGQRKDPSKNQGGGLSSS
With B1 the “Snail1 stability, anti-Flag immunoblot (HEK293T)” value [1] was “the WHEP-PRS fragment rather than ERS-WHEP fragment in the EPRS more contributed to the Snail1 stability”.

B2: 2× Strep-tagged EPRS (pEXPR-2×IBA105-EPRS) (protein)
chain: MATLSLTVNSGDPPLGALLAVEHVKDDVSISVEEGKENILHVSENVIFTDVNSILRYLARVATTAGLYGSNLMEHTEIDHWLEFSATKLSSCDSFTSTINELNHCLSLRTYLVGNSLSLADLCVWATLKGNAAWQEQLKQKKAPVHVKRWFGFLEAQQAFQSVGTKWDVSTTKARVAPEKKQDVGKFVELPGAEMGKVTVRFPPEASGYLHIGHAKAALLNQHYQVNFKGKLIMRFDDTNPEKEKEDFEKVILEDVAMLHIKPDQFTYTSDHFETIMKYAEKLIQEGKAYVDDTPAEQMKAEREQRIDSKHRKNPIEKNLQMWEEMKKGSQFGQSCCLRAKIDMSSNNGCMRDPTLYRCKIQPHPRTGNKYNVYPTYDFACPIVDSIEGVTHALRTTEYHDRDEQFYWIIEALGIRKPYIWEYSRLNLNNTVLSKRKLTWFVNEGLVDGWDDPRFPTVRGVLRRGMTVEGLKQFIAAQGSSRSVVNMEWDKIWAFNKKVIDPVAPRYVALLKKEVIPVNVPEAQEEMKEVAKHPKNPEVGLKPVWYSPKVFIEGADAETFSEGEMVTFINWGNLNITKIHKNADGKIISLDAKLNLENKDYKKTTKVTWLAETTHALPIPVICVTYEHLITKPVLGKDEDFKQYVNKNSKHEELMLGDPCLKDLKKGDIIQLQRRGFFICDQPYEPVSPYSCKEAPCVLIYIPDGHTKEMPTSGSKEKTKVEATKNETSAPFKERPTPSLNNNCTTSEDSLVLYNRVAVQGDVVRELKAKKAPKEDVDAAVKQLLSLKAEYKEKTGQEYKPGNPPAEIGQNISSNSSASILESKSLYDEVAAQGEVVRKLKAEKSPKAKINEAVECLLSLKAQYKEKTGKEYIPGQPPLSQSSDSSPTRNSEPAGLETPEAKVLFDKVASQGEVVRKLKTEKAPKDQVDIAVQELLQLKAQYKSLIGVEYKPVSATGAEDKDKKKKEKENKSEKQNKPQKQNDGQRKDPSKNQGGGLSSSGAGEGQGPKKQTRLGLEAKKEENLADWYSQVITKSEMIEYHDISGCYILRPWAYAIWEAIKDFFDAEIKKLGVENCYFPMFVSQSALEKEKTHVADFAPEVAWVTRSGKTELAEPIAIRPTSETVMYPAYAKWVQSHRDLPIKLNQWCNVVRWEFKHPQPFLRTREFLWQEGHSAFATMEEAAEEVLQILDLYAQVYEELLAIPVVKGRKTEKEKFAGGDYTTTIEAFISASGRAIQGGTSHHLGQNFSKMFEIVFEDPKIPGEKQFAYQNSWGLTTRTIGVMTMVHGDNMGLVLPPRVACVQVVIIPCGITNALSEEDKEALIAKCNDYRRRLLSVNIRVRADLRDNYSPGWKFNHWELKGVPIRLEVGPRDMKSCQFVAVRRDTGEKLTVAENEAETKLQAILEDIQVTLFTRASEDLKTHMVVANTMEDFQKILDSGKIVQIPFCGEIDCEDWIKKTTARDQDLEPGAPSMGAKSLCIPFKPLCELQPGAKCVCGKNPAKYYTLFGRSY
For B2, the “protein expression level of Snail1, anti-Flag immunoblot (HEK293T)” value [1] was “the protein expression level of Snail1 increased more when overexpressed together with EPRS through co-transfection than when overexpressed alone”.

B3: Flag-tagged EPRS (human Flag-tagged EPRS expression vector, Origene) (protein)
chain: B2 chain
For B3, the “ubiquitination of Snail1 (streptavidin pull-down, anti-HA immunoblot)” value [2] was “the ubiquitination was reduced in the EPRS overexpressed experimental group”.

B4: glutamyl-prolyl-tRNA synthetase (EPRS), endogenous protein of A549 or HEK293T cells (protein)
chain: B2 chain
With B4 the “EMT markers after EPRS knock-down (immunoblot, A549)” value [3] was “at the time of EPRS knock-down, the Snail1 and p-SMAD3 was reduced and the E-cadherin was increased. This indicates that the EMT progress was suppressed”.

B5: Strep-tagged WHEP-PRS domain of EPRS (pEXPR-IBA105-PRS) (protein)
chain: VEATKNETSAPFKERPTPSLNNNCTTSEDSLVLYNRVAVQGDVVRELKAKKAPKEDVDAAVKQLLSLKAEYKEKTGQEYKPGNPPAEIGQNISSNSSASILESKSLYDEVAAQGEVVRKLKAEKSPKAKINEAVECLLSLKAQYKEKTGKEYIPGQPPLSQSSDSSPTRNSEPAGLETPEAKVLFDKVASQGEVVRKLKTEKAPKDQVDIAVQELLQLKAQYKSLIGVEYKPVSATGAEDKDKKKKEKENKSEKQNKPQKQNDGQRKDPSKNQGGGLSSSGAGEGQGPKKQTRLGLEAKKEENLADWYSQVITKSEMIEYHDISGCYILRPWAYAIWEAIKDFFDAEIKKLGVENCYFPMFVSQSALEKEKTHVADFAPEVAWVTRSGKTELAEPIAIRPTSETVMYPAYAKWVQSHRDLPIKLNQWCNVVRWEFKHPQPFLRTREFLWQEGHSAFATMEEAAEEVLQILDLYAQVYEELLAIPVVKGRKTEKEKFAGGDYTTTIEAFISASGRAIQGGTSHHLGQNFSKMFEIVFEDPKIPGEKQFAYQNSWGLTTRTIGVMTMVHGDNMGLVLPPRVACVQVVIIPCGITNALSEEDKEALIAKCNDYRRRLLSVNIRVRADLRDNYSPGWKFNHWELKGVPIRLEVGPRDMKSCQFVAVRRDTGEKLTVAENEAETKLQAILEDIQVTLFTRASEDLKTHMVVANTMEDFQKILDSGKIVQIPFCGEIDCEDWIKKTTARDQDLEPGAPSMGAKSLCIPFKPLCELQPGAKCVCGKNPAKYYTLFGRSY
B5 was tested, and the “Snail1 stability, anti-Flag immunoblot (HEK293T)” value [1] was “the WHEP-PRS fragment rather than ERS-WHEP fragment in the EPRS more contributed to the Snail1 stability”.
